Measurements as given in patent US20060188503A1 (Genentech, published 2006).

How the values were obtained:
[1] = biological target: KDR receptor with a gD tag at the N-terminus, on CHO cells (UniProt P35968 20-1356); test: cell-based or functional assay
[2] = biological target: KDR receptor on human umbilical vein endothelial cells (HUVEC) (human, UniProt P35968 20-1356); test: cell-based or functional assay
KDR (1-3) [3] = biological target: T1, KDR (1-3) (UniProt P35968 20-327, limits assumed); test: competition ELISA: displacement of biotinylated native VEGF (8-109) from KDR (1-3)
T1 construct: domain: KDR (1-3); Soluble KDR (1-3) at 1 ug/ml, captured on anti-KDR antibody MAKD5; also called KDR (1-3) monomer
Description: (§1) Aliquots of this mixture (100 μl) were added to the precoated microtiter wells and the plate was incubated for 1 hour at room temperature.
(§2) The wells were then incubated with 3,3′,5,5′-tetramethyl benzidine (0.2 gram/liter; Kirkegaard & Perry Laboratories, Gaithersburg, Md.) for about 10 minutes at room temperature. Absorbance was read at 450 nm on a Vmax plate reader (Molecular Devices, Menlo Park, Calif.).
(§3) Titration curves were fit with a four-parameter nonlinear regression curve-fitting program (KaleidaGraph, Synergy Software, Reading, Pa.).

[4] = biological target: T2, Flt-IgG (a chimeric Flt-human Fc molecule) (human, UniProt P17948 27-758, limits assumed); test: competition ELISA: displacement of biotinylated native VEGF from Flt-IgG
T2 construct: not shown: human IgG Fc
Description: The wells were filled with 100 μl of a solution containing Flt-IgG (a chimeric Flt-human Fc molecule) at 50 ng/ml in assay buffer (0.5% BSA, 0.05% Tween 20 in PBS). The wells were incubated at room temperature for 1 hour and then washed three times in wash buffer (0.05% Tween 20 in PBS).
Aliquots of the mixture (100 μl) were added to the precoated microtiter wells and the plate was incubated for 2 hours at room temperature. […] The wells were then incubated with […] (0.2 g/liter, Kirkegaard & Perry Laboratories, Gaithersburg, Md.) for about 10 minutes at room temperature. Absorbance was read at 450 nm on a Vmax plate reader (Molecular Devices, Menlo Park, Calif.).
as §3

[5] = biological target: KDR Receptor (RIA of Example 11) (UniProt P35968 20-764, limits assumed); test: RIA, essentially as in Muller et al. 1997
[6] = biological target: FLT-1 Receptor (RIA of Example 11) (UniProt P17948 27-758, limits assumed); test: RIA, essentially as in Muller et al. 1997
KDR (1-3) [7] = biological target: T1, KDR (1-3); test: competition ELISA: displacement of biotinylated native VEGF (8-109) from KDR (1-3); concentration at midpoint absorbance
Description: as §1, §2, §3

KDR (1-3) [8] = biological target: T1, KDR (1-3); test: competition ELISA (Example 7): serially diluted unlabelled native VEGF (8-109) incubated with biotinylated native VEGF (8-109) (84 nM) and KDR (1-3) (1 ug/ml), complex captured on anti-KDR antibody MAKD5, detected with peroxidase-streptavidin, OD 450
Description: as §1, §2, §3

T1 sequence (P35968 20-327 limits assumed): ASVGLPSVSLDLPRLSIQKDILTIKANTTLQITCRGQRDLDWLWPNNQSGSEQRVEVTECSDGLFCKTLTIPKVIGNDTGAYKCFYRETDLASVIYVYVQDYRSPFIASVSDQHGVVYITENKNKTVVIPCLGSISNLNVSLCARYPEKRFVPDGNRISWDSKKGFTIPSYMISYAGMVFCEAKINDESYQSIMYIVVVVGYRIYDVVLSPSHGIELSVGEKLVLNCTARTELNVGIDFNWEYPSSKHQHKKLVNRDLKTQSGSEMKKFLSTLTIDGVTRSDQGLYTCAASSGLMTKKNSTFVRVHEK
Chain of KDR receptor on human umbilical vein endothelial cells (HUVEC) (P35968 20-1356): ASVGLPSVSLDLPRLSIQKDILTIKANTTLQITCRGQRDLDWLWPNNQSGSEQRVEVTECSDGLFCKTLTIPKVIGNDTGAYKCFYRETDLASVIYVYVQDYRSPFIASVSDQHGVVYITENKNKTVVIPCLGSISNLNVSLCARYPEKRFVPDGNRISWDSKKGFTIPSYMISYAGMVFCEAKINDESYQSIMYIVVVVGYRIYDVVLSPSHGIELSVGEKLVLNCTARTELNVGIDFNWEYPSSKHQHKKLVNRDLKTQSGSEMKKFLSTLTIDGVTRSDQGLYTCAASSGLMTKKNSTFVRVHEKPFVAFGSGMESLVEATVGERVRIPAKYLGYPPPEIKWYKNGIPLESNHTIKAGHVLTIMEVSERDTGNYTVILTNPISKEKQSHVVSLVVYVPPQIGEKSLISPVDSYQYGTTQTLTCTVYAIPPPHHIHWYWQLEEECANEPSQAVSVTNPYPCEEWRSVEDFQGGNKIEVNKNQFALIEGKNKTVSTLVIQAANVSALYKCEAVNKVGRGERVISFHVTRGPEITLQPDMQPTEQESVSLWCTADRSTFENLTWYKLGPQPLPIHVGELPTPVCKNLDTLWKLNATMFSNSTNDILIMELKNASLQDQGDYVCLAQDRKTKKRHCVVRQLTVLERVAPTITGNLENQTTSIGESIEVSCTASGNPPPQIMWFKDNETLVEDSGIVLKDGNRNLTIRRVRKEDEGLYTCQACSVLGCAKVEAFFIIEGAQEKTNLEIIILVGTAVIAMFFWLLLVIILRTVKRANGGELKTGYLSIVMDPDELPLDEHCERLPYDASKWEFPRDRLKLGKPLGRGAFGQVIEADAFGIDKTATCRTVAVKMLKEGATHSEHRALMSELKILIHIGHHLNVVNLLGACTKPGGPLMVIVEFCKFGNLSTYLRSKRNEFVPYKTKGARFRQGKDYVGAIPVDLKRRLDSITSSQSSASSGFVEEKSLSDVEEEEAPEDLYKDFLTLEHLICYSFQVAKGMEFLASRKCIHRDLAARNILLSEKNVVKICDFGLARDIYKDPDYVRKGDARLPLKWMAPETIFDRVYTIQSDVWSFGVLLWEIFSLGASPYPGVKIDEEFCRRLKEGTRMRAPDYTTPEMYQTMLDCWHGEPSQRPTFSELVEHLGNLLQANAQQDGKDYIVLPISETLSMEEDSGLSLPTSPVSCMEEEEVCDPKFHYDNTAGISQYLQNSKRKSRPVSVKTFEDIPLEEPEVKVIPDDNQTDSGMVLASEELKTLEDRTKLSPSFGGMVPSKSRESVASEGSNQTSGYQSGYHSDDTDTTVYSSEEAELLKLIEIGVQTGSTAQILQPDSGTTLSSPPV
T2 sequence (P17948 27-758 limits assumed, change not shown): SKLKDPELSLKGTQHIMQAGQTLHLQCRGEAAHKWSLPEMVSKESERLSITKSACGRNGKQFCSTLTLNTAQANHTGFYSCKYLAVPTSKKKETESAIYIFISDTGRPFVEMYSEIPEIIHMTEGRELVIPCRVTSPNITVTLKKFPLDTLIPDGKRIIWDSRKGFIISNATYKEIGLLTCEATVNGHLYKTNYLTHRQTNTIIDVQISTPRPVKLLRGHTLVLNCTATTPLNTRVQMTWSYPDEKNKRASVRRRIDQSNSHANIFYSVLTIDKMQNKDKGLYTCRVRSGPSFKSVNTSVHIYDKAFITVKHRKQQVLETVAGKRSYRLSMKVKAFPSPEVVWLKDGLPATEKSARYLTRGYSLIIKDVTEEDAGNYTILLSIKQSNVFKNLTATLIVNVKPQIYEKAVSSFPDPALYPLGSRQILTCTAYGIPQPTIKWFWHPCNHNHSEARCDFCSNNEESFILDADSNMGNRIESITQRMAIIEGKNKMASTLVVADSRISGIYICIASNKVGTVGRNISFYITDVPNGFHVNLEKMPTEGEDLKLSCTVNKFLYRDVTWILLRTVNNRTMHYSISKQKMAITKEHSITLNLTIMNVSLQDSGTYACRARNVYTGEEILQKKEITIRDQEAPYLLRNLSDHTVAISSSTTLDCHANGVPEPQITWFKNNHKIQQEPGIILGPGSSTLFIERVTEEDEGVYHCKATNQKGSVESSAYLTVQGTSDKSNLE
Chain of KDR Receptor (RIA of Example 11) (P35968 20-764 limits assumed): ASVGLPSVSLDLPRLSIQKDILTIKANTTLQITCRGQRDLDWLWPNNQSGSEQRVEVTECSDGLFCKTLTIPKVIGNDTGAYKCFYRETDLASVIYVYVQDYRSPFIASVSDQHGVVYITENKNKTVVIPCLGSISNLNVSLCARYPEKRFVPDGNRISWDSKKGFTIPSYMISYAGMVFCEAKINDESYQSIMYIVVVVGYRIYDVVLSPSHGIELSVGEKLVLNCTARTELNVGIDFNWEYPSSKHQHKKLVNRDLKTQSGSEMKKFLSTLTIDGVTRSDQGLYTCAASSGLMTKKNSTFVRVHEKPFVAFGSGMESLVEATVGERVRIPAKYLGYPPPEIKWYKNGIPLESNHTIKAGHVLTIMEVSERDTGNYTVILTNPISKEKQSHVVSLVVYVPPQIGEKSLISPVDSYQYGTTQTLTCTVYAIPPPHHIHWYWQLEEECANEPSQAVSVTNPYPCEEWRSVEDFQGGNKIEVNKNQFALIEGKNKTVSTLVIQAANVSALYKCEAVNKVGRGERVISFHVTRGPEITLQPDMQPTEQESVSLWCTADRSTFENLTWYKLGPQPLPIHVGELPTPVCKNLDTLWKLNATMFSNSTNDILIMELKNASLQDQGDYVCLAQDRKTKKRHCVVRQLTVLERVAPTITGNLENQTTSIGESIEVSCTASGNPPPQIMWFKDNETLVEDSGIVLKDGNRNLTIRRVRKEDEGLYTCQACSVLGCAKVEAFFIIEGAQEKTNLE
Chain of FLT-1 Receptor (RIA of Example 11) (P17948 27-758 limits assumed): as the sequence (P17948 27-758 limits assumed, change not shown) above

| Binder | relative binding affinity (ratio to native VEGF (8-109)) (KDR (1-3) [3]) [fold] | other results |
| --- | --- | --- |
| LK-VRB-1s* (ligand) APMAEGGGQNHHEVVKFEDVLRRSSCHPIETLVDIFQEYPDEIEYIFKPSCVPLMRCGGCCNDEGLECVPTEESNITMQIMRIKPHQGQHIGEMSFLQHNKCECRPKKD | 1 | Phosphorylation-Inducing Activity (KIRA), ratio to native VEGF (8-109) [1]: 0.5 fold; Endothelial Cell Proliferation Activity (HUVEC), ratio to native VEGF (8-109) [2]: 0.2 fold; relative binding affinity (ratio to native VEGF (8-109)) [4]: 6000 fold; relative binding affinity (ratio to native VEGF 165) [5]: 20 fold; relative binding affinity (ratio to native VEGF 165) [6]: 14000 fold |
| LK-VRB-19s (ligand) APMAEGGGQNHHEVVKFEDVYRRSSCHPIETLVDIFQEYPDEIEYIFKPSCVPLMRCGGCCNSEMRECVPTEESNITMQIMRIKPHQGQHIGEMSFLQHNKCECRPKKD | 7 | IC50 (KDR (1-3) [7]): 7 nM |
| LK-VRB-13s (ligand) APMAEGGGQNHHEVVKFEDVYQRSSCHPIETLVDIFQEYPDEIEYIFKPSCVPLMRCGGCCNSEMRECVPTEESNITMQIMRIKPHQGQHIGEMSFLQHNKCECRPKKD | 14 | – |
| LK-VRB-8s* (ligand, 'Y2IL' read as Y21L (codon CTC)) APMAEGGGQNHHEVVKFMDVLQRSYCHPIETLVDIFQEYPDEIEYIFKPSCVPLMRCGGCCNSEMRECVPTEESNITMQIMRIKPHQGQHIGEMSFLQHNKCECRPKKD | 0.5 | Endothelial Cell Proliferation Activity (HUVEC), ratio to native VEGF (8-109) [2]: 1 fold |
| LK-VRB-23s (ligand) APMAEGGGQNHHEVVKFEDVLRRSSCHPIETLVDIFQEYPDEIEYIFKPSCVPLMRCGGCCNDEGRECVPTEESNITMQIMRIKPHQGQHIGEMSFLQHNKCECRPKKD | 11 | – |
| LK-VRB-25s (ligand) APMAEGGGQNHHEVVKFEDVLRRSSCHPIETLVDIFQEYPDEIEYIFKPSCVPLMRCGGCCNSEGRECVPTEESNITMQIMRIKPHQGQHIGEMSFLQHNKCECRPKKD | 4 | – |
| LK-VRB-15s (ligand) APMAEGGGQNHHEVVKFMDVLQRSSCHPIETLVDIFQEYPDEIEYIFKPSCVPLMRCGGCCNSEMRECVPTEESNITMQIMRIKPHQGQHIGEMSFLQHNKCECRPKKD | 2 | – |
| LK-VRB-22s (ligand) APMAEGGGQNHHEVVKFEDVLRRSSCHPIETLVDIFQEYPDEIEYIFKPSCVPLMRCGGCCNDEMLECVPTEESNITMQIMRIKPHQGQHIGEMSFLQHNKCECRPKKD | 4 | – |
| LK-VRB-20s (ligand) APMAEGGGQNHHEVVKFMDVLRRSSCHPIETLVDIFQEYPDEIEYIFKPSCVPLMRCGGCCNSEMRECVPTEESNITMQIMRIKPHQGQHIGEMSFLQHNKCECRPKKD | 2 | – |
| LK-VRB-26s (ligand) APMAEGGGQNHHEVVKFEDVLRRSSCHPIETLVDIFQEYPDEIEYIFKPSCVPLMRCGGCCNDEMRECVPTEESNITMQIMRIKPHQGQHIGEMSFLQHNKCECRPKKD | 23 | – |
| LK-VRB-9s (ligand) APMAEGGGQNHHEVVKFMDVYRRSYCHPIETLVDIFQEYPDEIEYIFKPSCVPLMRCGGCCNSEMRECVPTEESNITMQIMRIKPHQGQHIGEMSFLQHNKCECRPKKD | 0.5 | relative binding affinity (ratio to native VEGF (8-109)) [4]: 300 fold |
| LK-VRB-12s (ligand) APMAEGGGQNHHEVVKFEDVYRRSYCHPIETLVDIFQEYPDEIEYIFKPSCVPLMRCGGCCNSEMRECVPTEESNITMQIMRIKPHQGQHIGEMSFLQHNKCECRPKKD | 0.4 | – |
| LK-VRB-7s* (ligand) APMAEGGGQNHHEVVKFEDVYQRSYCHPIETLVDIFQEYPDEIEYIFKPSCVPLMRCGGCCNSEMRECVPTEESNITMQIMRIKPHQGQHIGEMSFLQHNKCECRPKKD | 1 | Endothelial Cell Proliferation Activity (HUVEC), ratio to native VEGF (8-109) [2]: 1 fold |
| LK-VRB-3s (ligand) APMAEGGGQNHHEVVKIEDVFKRSSCHPIETLVDIFQEYPDEIEYIFKPSCVPLMRCGGCCNDEGLECVPTEESNITMQIMRIKPHQGQHIGEMSFLQHNKCECRPKKD | 1 | Phosphorylation-Inducing Activity (KIRA), ratio to native VEGF (8-109) [1]: 1 fold; relative binding affinity (ratio to native VEGF (8-109)) [4]: 400 fold |
| LK-VRB-21s (ligand) APMAEGGGQNHHEVVKFEDVLRRSSCHPIETLVDIFQEYPDEIEYIFKPSCVPLMRCGGCCNSEGLECVPTEESNITMQIMRIKPHQGQHIGEMSFLQHNKCECRPKKD | 3 | – |
| LK-VRB-14s (ligand) APMAEGGGQNHHEVVKFMDVLRRSYCHPIETLVDIFQEYPDEIEYIFKPSCVPLMRCGGCCNSEMRECVPTEESNITMQIMRIKPHQGQHIGEMSFLQHNKCECRPKKD | 0.5 | – |
| LK-VRB-17s (ligand) APMAEGGGQNHHEVVKFEDVLRRSYCHPIETLVDIFQEYPDEIEYIFKPSCVPLMRCGGCCNSEMRECVPTEESNITMQIMRIKPHQGQHIGEMSFLQHNKCECRPKKD | 3 | – |
| LK-VRB-24s (ligand) APMAEGGGQNHHEVVKFEDVLRRSSCHPIETLVDIFQEYPDEIEYIFKPSCVPLMRCGGCCNSEMLECVPTEESNITMQIMRIKPHQGQHIGEMSFLQHNKCECRPKKD | 10 | – |
| LK-VRB-4s (ligand, the codon printed for Y25I is CAC (His)) APMAEGGGQNHHEVVKIEDVFERSICHPIETLVDIFQEYPDEIEYIFKPSCVPLMRCGGCCNDEGLECVPTEESNITMQIMRIKPHQGQHIGEMSFLQHNKCECRPKKD | 1 | Phosphorylation-Inducing Activity (KIRA), ratio to native VEGF (8-109) [1]: 0.5 fold; relative binding affinity (ratio to native VEGF (8-109)) [4]: 200 fold |
| LK-VRB-16s (ligand) APMAEGGGQNHHEVVKFMDVYRRSSCHPIETLVDIFQEYPDEIEYIFKPSCVPLMRCGGCCNSEMRECVPTEESNITMQIMRIKPHQGQHIGEMSFLQHNKCECRPKKD | 0.6 | – |
| LK-VRB-11s (ligand) APMAEGGGQNHHEVVKFEDVLQRSYCHPIETLVDIFQEYPDEIEYIFKPSCVPLMRCGGCCNSEMRECVPTEESNITMQIMRIKPHQGQHIGEMSFLQHNKCECRPKKD | 2 | – |
| LK-VRB-10s (ligand) APMAEGGGQNHHEVVKFMDVYQRSSCHPIETLVDIFQEYPDEIEYIFKPSCVPLMRCGGCCNSEMRECVPTEESNITMQIMRIKPHQGQHIGEMSFLQHNKCECRPKKD | 0.5 | – |
| Native VEGF (8-109) (ligand) GQNHHEVVKFMDVYQRSYCHPIETLVDIFQEYPDEIEYIFKPSCVPLMRCGGCCNDEGLECVPTEESNITMQIMRIKPHQGQHIGEMSFLQHNKCECRPKKD | – | IC50 (read off the curve) (KDR (1-3) [8]): ~2 nM |
